From PMC7774954 (PLoS ONE, 2020)
Where no end group is shown, it is not given here. The star is where a group is joined. Biotin = O=C1N[C@H]2[C@H](CS[C@H]2CCCCC(=O)*)N1; TTDS = NCCCOCCOCCOCCCNC(=O)CCC(=O)*

T1: PTPN13-2 (human, UniProt Q12923 1368-1452)
T1 construct: PDZ domain number 2 of human PTPN13; also called PTPN13 PDZ dom 2; source: E. coli, in crude cell lysate; not shown: His, N-terminal, kept
T1 sequence (looked up): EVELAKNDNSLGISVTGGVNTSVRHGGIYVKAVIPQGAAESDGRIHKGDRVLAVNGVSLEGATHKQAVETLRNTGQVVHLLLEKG

T2: PTPN13-4 (human, UniProt Q12923 1788-1868)
T2 construct: PDZ domain number 4 of human PTPN13; also called PTPN13 PDZ dom 4; fourth PDZ domain of PTPN13; source: E. coli, in crude cell lysate; not shown: His, N-terminal, kept
T2 sequence (looked up): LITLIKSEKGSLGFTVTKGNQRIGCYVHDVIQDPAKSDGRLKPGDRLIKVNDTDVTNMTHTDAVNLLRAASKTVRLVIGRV

T3: NHERF3-1, first PDZ domain of NHERF3 (human, UniProt Q5T2W1 9-90)
T3 sequence (looked up): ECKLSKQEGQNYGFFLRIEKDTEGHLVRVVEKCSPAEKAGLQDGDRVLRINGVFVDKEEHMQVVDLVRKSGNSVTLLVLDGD

T4: SYNJ2BP PDZ domain (human, UniProt P57105 13-100)
T4 sequence (looked up): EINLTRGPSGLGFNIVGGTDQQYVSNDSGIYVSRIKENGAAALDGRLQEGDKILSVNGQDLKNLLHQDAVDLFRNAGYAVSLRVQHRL

T5: SCRIB-3, third PDZ domain of SCRIB (human, UniProt Q14160 1004-1093)
T5 sequence (looked up): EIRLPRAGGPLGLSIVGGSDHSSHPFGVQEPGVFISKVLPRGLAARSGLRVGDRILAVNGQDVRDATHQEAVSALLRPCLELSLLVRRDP

T6: PDZRN4-1, first PDZ domain of PDZRN4 (human, UniProt Q6ZMN7 224-314)
T6 sequence (looked up): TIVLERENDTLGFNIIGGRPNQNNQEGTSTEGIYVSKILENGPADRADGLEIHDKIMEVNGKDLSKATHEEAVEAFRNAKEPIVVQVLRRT

T7: PDZRN3-1, first PDZ domain of PDZRN3 (human, UniProt Q9UPQ7 249-339)
T7 sequence (looked up): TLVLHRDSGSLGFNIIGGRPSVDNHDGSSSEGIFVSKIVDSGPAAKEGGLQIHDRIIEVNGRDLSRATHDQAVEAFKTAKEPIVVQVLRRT

B1: PTEN_13 (peptide, UniProt P60484 391-403, looked up)
peptide: {Biotin-TTDS}-PFDEDQHTQITKV
notes: also called 13-mer PTEN peptide; extended wild-type peptide; source: synthetic peptide, bought: JPT Innovative Peptide Solutions (70%-80% purity)

Legend:
[1] = molecular target: T1, PTPN13-2; test: holdup assay; biotinylated PBM peptide saturating streptavidin resin (biotin resin as reference); tag-PDZ at 4 uM in crude E. coli lysate, 15 min, filtration, free tag-PDZ by capillary electrophoresis; singlicate; BI cut-off 0.20; BI converted into KD with the peptide concentration back-calculated from FP; conditions: one partner purified
[2] = molecular target: T8, NHERF2-2 (human, UniProt Q15599 150-230); test: as above; conditions: one partner purified
T8 construct: PDZ domain number 2 of human NHERF2; also called NHERF2 PDZ dom 2; source: E. coli, in crude cell lysate; not shown: His, N-terminal, kept

[3] = molecular target: T9, MAGI2-2 (human, UniProt Q86UL8 426-510); test: as above; conditions: one partner purified
T9 construct: PDZ domain number 2 of human MAGI2; also called MAGI2 PDZ dom 2; source: E. coli, in crude cell lysate; not shown: His, N-terminal, kept

[4] = molecular target: T10, MAGI1-3 (human, UniProt Q96QZ7 643-721); test: as above; conditions: one partner purified
T10 construct: PDZ domain number 3 of human MAGI1; also called MAGI1 PDZ dom 3; source: E. coli, in crude cell lysate; not shown: His, N-terminal, kept

[5] = molecular target: T11, NHERF2-1 (human, UniProt Q15599 11-90); test: as above; conditions: one partner purified
T11 construct: PDZ domain number 1 of human NHERF2; also called NHERF2 PDZ dom 1; source: E. coli, in crude cell lysate; not shown: His, N-terminal, kept

[6] = molecular target: T12, DLG1-2 (human, UniProt Q12959 319-405); test: as above; conditions: one partner purified
T12 construct: PDZ domain number 2 of human DLG1; also called DLG1 PDZ dom 2; source: E. coli, in crude cell lysate; not shown: His, N-terminal, kept

[7] = molecular target: T13, MAGI3-2 (human, UniProt Q5TCQ9 410-492); test: as above; conditions: one partner purified
T13 construct: PDZ domain number 2 of human MAGI3; also called MAGI3 PDZ dom 2; source: E. coli, in crude cell lysate; not shown: His, N-terminal, kept

[8] = molecular target: T14, MAGI2-3 (human, UniProt Q86UL8 605-683); test: as above; conditions: one partner purified
T14 construct: PDZ domain number 3 of human MAGI2; also called MAGI2 PDZ dom 3; source: E. coli, in crude cell lysate; not shown: His, N-terminal, kept

[9] = molecular target: T15, PARD3-3 (human, UniProt Q8TEW0 590-677); test: as above; conditions: one partner purified
T15 construct: the text says PARD3-1; also called PARD3 PDZ dom 3; source: E. coli, in crude cell lysate; not shown: His, N-terminal, kept

[10] = molecular target: T2, PTPN13-4; test: as above; conditions: one partner purified
[11] = molecular target: T3, NHERF3-1, first PDZ domain of NHERF3; test: fluorescence polarisation; direct: N-terminally fluorescein-labelled PBM peptide (tracer) with increasing amounts of MBP-PDZ; 384-well plates; triplicate; direct binding model (ProFit); conditions: both partners purified
[12] = molecular target: T16, MAGI2-2, second PDZ domain of MAGI2 (human, UniProt Q86UL8 426-510); test: as above; conditions: both partners purified
T16 construct: not shown: His6, N-terminal, kept; MBP, N-terminal, kept

[13] = molecular target: T4, SYNJ2BP PDZ domain; test: as above; conditions: both partners purified
[14] = molecular target: DLG4-3, third PDZ domain of DLG4 (human, UniProt P78352 313-393); test: as above; conditions: both partners purified
[15] = molecular target: T5, SCRIB-3, third PDZ domain of SCRIB; test: as above; conditions: both partners purified
[16] = molecular target: MAGI1-2, second PDZ domain of MAGI1 (human, UniProt Q96QZ7 472-554); test: as above; conditions: both partners purified
[17] = molecular target: T6, PDZRN4-1, first PDZ domain of PDZRN4; test: as above; conditions: both partners purified
[18] = molecular target: T7, PDZRN3-1, first PDZ domain of PDZRN3; test: as above; conditions: both partners purified

T15 sequence (Q8TEW0 590-677): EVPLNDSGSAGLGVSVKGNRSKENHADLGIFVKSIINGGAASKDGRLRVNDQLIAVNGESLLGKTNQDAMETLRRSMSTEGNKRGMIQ
T11 sequence (Q15599 11-90): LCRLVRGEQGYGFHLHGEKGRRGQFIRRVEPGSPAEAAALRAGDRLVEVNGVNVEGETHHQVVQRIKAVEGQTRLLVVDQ
Sequence of DLG4-3, third PDZ domain of DLG4 (P78352 313-393): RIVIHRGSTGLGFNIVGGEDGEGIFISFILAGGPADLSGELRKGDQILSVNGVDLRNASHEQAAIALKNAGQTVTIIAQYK
T9 sequence (Q86UL8 426-510): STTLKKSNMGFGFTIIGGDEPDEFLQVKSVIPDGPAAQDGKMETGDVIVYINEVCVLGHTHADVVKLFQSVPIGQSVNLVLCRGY
T16 sequence (Q86UL8 426-510): as above
T10 sequence (Q96QZ7 643-721): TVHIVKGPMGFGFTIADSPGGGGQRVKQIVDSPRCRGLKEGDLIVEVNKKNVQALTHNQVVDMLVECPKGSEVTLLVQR
T8 sequence (Q15599 150-230): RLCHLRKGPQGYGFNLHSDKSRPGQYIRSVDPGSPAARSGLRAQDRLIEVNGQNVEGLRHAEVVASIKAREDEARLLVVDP
T13 sequence (Q5TCQ9 410-492): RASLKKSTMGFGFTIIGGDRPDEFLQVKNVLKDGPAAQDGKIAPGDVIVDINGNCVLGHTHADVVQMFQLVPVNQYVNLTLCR
Sequence of MAGI1-2, second PDZ domain of MAGI1 (Q96QZ7 472-554): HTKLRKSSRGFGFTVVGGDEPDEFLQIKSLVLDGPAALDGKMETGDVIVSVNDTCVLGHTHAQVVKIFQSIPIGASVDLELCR
T14 sequence (Q86UL8 605-683): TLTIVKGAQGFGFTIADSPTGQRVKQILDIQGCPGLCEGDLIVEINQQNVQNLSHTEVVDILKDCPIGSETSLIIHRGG

Binder	Kd [1] [µM]	Kd [2] [µM]	Kd [3] [µM]	Kd [4] [µM]	Kd [5] [µM]	Kd [6] [µM]	Kd [7] [µM]	Kd [8] [µM]	Kd [9] [µM]	Kd [10] [µM]	Kd [11] [µM]	Kd [12] [µM]	Kd [13] [µM]	Kd [14] [µM]	Kd [15] [µM]	Kd [16] [µM]	Kd [17] [µM]	Kd [18] [µM]
B1	16	125	149	10	134	81	21	30	96	36								
fluorescein-RTRRETQL (source: synthetic peptide) [f16E6, fluorescein-labelled HPV16 E6 PBM peptide]											2.34	2.77	2.28	7.27	1.47	0.5	2.93	1.08
